EC50 of 5C4 neutralisation of mKate-RSV A2 K201N-mutated virus on HEp-2 cells (viral F without DS-Cav1; antibody format not given) data for one molecule are collected here from publication PMC5707411.

The test addresses full-length RSV F A2 DS-Cav1 K201N (A-chimera construct) (respiratory syncytial virus subtype A, strain A2).

B1: 5C4 IgG (antibody, V domains shown)
VH: EVQLQQSGAELVKPGASVKLSCTASGFNIKDTFFHWVKQRPEQGLEWIGRIDPADGHTKYDPKFQGKATITADTSSNTAFLQLSSLTSVDTAVYYCATTITAVVPTPYNAMDYWGQGTSVTVSS
VL: DIVLTQSPASLAVSLGQRTTISCRASESVDSFDNSFIHWYQQKPGQPPKLLIFLASSLESGVPARFSGSGSRTDFTLTIDPVEADDAATYYCQQSNEDPFTFGSGTKLEIK
Molecule B1 gave an EC50 of 5C4 neutralisation of mKate-RSV A2 K201N-mutated virus on HEp-2 cells (viral F without DS-Cav1; antibody format not given) of 0.41 µg/mL.
